Measured values as given in paper PMC5444381.
Like-named read-outs stand apart in the source and are kept apart here.

What was measured:
[1] = target: BaL.01 Env trimeric spikes on pseudotyped viruses (HIV-1 BaL.01)
[2] = target: BaL.01 Env trimeric spikes on pseudotyped viruses (HIV-1 BaL.01); remark: listed apart in the source
[3] = target: BaL.01 Env trimeric spikes on pseudotyped viruses (HIV-1 BaL.01); remark: listed apart in the source

Substance	EC50 of virolysis (p24 release from HIV-1 BaL.01 pseudovirus, sandwich ELISA) [1] [nM]	IC50 of inhibition of HIV-1 BaL.01 pseudovirus infection of HOS.T4.R5 cells [1] [nM]	EC50 of virolysis (p24 release from HIV-1 BaL.01 pseudovirus, sandwich ELISA) [2] [nM]	IC50 of inhibition of HIV-1 BaL.01 pseudovirus infection of HOS.T4.R5 cells [3] [nM]
DAVEI-L4(ΔCRAC)	28.3	1.1		
DAVEI-L4(ΔCRAC)-W3,7,9,15A			122	0.78
DAVEI-L4(ΔCRAC)-W7,9,15A			43.1	0.36
DAVEI-L4(ΔCRAC)W9,15A			49.7	0.45
DAVEI-L4(ΔCRAC)W15A			46.8	0.4
DAVEI-L4(ΔMPER)		1.4		
